In assay [1] the target is T1, Human DLL3 (hDLL3) antigen (human, UniProt Q9NYJ7 27-492).
T1 construct: Soluble analyte in SPR; also called hDLL3 protein; soluble target antigen DLL3
T1 sequence: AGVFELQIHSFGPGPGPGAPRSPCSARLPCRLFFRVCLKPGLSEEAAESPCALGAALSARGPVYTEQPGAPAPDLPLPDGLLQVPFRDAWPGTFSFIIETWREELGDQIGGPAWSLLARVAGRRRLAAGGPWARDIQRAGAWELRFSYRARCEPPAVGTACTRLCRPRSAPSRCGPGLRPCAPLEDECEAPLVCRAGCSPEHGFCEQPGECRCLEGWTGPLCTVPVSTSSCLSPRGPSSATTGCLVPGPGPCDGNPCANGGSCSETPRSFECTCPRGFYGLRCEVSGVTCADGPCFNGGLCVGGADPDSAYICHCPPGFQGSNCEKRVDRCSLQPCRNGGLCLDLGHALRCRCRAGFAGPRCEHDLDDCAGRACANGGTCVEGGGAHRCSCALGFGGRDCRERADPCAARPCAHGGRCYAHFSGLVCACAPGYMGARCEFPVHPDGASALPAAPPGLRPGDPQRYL
Description: SPR, Biacore 8K, antibody captured on protein G chip, hDLL3 as analyte, multi-cycle. The protocol: The Biacore SPR 8K machine was used for kinetics binding analysis. The sensor surface of a protein G chip (series s Cat #29179315) was used to capture the ligands. 2 μg/ml of purified anti-DLL3 antibody was diluted in running buffer (0.01M HEPES, 0.15 NaCl, 3 mM EDTA, 0.005% Tween-20). The diluted antibody was then injected at a flow rate of 10 μL/min for 60 seconds. Human DLL3 (hDLL3) antigen was diluted in the same running buffer to 6 concentrations (30, 10, 3.33, 1.11, 0.37 and 0 nM). hDLL3 was then injected on all channels (with each channel having its own reference point) at a flow rate of 30 uL/min for an association phase of 300 seconds, followed by 600 seconds of dissociation. 6 cycles of running analyte were repeated according to analyte concentrations in ascending order. After each cycle of interaction analysis, the sensor chip surface was regenerated completely with Glycine-HCL pH 1.5 at a flow rate of […] for 60 s. The binding of the anti-DLL3 antibody and hDLL3 protein was analyzed by multi-cycle method.
In general terms: Surface plasmon resonance follows binding to a sensor surface in real time, without labels.

The target of assay [2] is T2, Cynomolgus macaque (cyno) DLL3 expressed on 293H cells (cynomolgus macaque, UniProt Q9NYJ7 27-618 (human entry)).
T2 construct: also called Cyno DLL3 cell; cyno DLL3 ORF-GFP
T2 chain: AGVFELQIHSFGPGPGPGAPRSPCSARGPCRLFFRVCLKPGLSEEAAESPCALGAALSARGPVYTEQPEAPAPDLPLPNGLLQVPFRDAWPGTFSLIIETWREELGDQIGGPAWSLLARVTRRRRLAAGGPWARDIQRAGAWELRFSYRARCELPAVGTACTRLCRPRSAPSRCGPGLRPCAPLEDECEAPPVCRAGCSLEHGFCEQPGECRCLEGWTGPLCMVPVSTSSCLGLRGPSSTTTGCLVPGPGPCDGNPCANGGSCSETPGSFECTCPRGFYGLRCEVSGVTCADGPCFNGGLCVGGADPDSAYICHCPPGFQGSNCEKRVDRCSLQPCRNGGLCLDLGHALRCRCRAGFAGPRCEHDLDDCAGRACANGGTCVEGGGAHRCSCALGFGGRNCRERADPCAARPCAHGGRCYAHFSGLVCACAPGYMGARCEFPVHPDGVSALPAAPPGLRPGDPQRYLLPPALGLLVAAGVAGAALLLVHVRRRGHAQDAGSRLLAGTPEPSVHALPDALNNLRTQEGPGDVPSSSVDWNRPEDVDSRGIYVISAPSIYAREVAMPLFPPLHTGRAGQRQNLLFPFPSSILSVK
Description: flow cytometry on 293H cells expressing cyno DLL3, Alexa 647 anti-human IgG1 secondary, 0.6 to 200 nM. The protocol:
(§1) Human DLL3 or cynomolgus macaque (cyno) DLL3 expressing cell lines were established by transfecting 293H cells with human DLL3 ORF-GFP or cyno DLL3 ORF-GFP plasmids and selecting stable single clone. A dose response curve for the anti-DLL3 mAb-1 binding to 293H cells expressing either human DLL3 or cyno DLL3 was generated by flow cytometry. Cells were incubated with increasing concentrations of anti-DLL3 mAb-1 in the range of 0.6 to 200 nM. Cells were washed then incubated with a secondary antibody (Alexa 647 conjugated anti-human IgG1) to measure the amount of antibody bound to the 293H cells. A dose response curve was fitted from the data using the non-linear regression function in GraphPad Prism version 8. Half-maximal concentration (EC₅₀) value was calculated from the dose response curve.

For assay [3], the target named is T3, Human DLL3 expressed on 293H cells (human, UniProt Q9NYJ7 27-618).
T3 construct: also called Human DLL3 cell; human DLL3 ORF-GFP
T3 sequence: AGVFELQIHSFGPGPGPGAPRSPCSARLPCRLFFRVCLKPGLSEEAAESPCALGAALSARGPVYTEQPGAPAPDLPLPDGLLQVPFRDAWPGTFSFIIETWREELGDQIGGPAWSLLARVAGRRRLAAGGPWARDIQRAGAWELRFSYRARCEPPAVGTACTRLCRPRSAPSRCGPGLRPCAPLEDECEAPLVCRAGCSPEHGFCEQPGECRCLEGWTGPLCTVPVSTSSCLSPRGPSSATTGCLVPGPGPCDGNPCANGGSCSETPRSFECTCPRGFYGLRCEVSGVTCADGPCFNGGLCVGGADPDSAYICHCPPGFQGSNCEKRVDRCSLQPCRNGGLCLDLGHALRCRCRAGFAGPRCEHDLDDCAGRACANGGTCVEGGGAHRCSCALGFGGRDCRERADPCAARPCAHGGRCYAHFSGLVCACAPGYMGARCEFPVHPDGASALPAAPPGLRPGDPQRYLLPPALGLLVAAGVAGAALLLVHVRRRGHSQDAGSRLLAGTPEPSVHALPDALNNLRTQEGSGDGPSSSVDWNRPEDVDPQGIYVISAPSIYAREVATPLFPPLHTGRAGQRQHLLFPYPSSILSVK
Description: flow cytometry on 293H cells expressing human DLL3, Alexa 647 anti-human IgG1 secondary, 0.6 to 200 nM. The protocol:
as §1

A word on the Kd: it is the free concentration of one partner at which half of the binding sites on the other are occupied at equilibrium, for simple one-to-one binding. The low end stands for higher affinity, the high end for lower affinity. Broadly, the koff is a measure of how fast the partners let go of each other. Low readings indicate slow dissociation, high ones fast dissociation. The kon is the rate constant with which the complex forms. Low readings indicate slower complex formation, high ones faster complex formation. As a reminder, the EC50 is the concentration needed to bring the measured effect to its halfway point. Lower therefore signals a more potent agent.

B1: DLL3-mAb-1 (antibody, human IgG1, kappa, V domains shown)
VH: QVQLQESGPGLVKPSQTLSLTCTVSGDSISSDGYYWSWIRQHPGKGLEWIGYIYYSGNTYYNPSLKSRVTISVDTSKNQFSLKLTSVTAADTAIYYCAIDTASALAYWGQGTLVTVSS
VL: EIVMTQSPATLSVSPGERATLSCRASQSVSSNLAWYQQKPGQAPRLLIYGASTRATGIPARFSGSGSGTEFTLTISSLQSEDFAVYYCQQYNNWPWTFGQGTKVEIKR
notes: It was captured on a protein G chip and detected with anti-human IgG1, and it is a fully human antibody with a fixed human kappa light chain; also called anti-DLL3 mAb-1; anti-DLL3 antibody DLL3-mAb-1
For B1, in assay [1], binding was put at a Kd of 58.8 nM, the koff worked out at 0.0137 s⁻¹ and the kon amounted to 233000 M⁻¹ s⁻¹. The EC50 in assay [2] was determined as 10.4 nM. Also, it took 15.6 nM to reach a half-maximal effect in assay [3] (EC50).

These data come from patent US20260061051A1 (JUNO THERAPEUTICS, published 2026).
